These results are taken from patent US20260008840A1 (ALZPATH, published 2026).

Positions count from the first letter of the chain named.

Assay [1] has as its target T1, Tau in brain lysate samples from Control subjects (human, UniProt P10636-8 2-441, limits assumed).
T1 construct: A mixture of isoforms; also called different length isoforms of Tau in control samples
The experiment in a line: Western blot of brain lysates. As to the method:
(§1) In FIG. 26, Western blots were used to assess binding of various antibodies to brain lysate samples from AD patients and Control subjects. Protein ladders were run in lanes 1 and 10. Phosphatase treated pTau loaded in an amount of 0.05 ug was run in lane 2. Full-length Tau (Tau411) loaded in an amount of 0.05 ug was run in lane 3. Lanes 4-6 contain samples from different Control subjects with a dilution factor of 5. Lanes 7-9 contain samples from different AD subjects with a dilution factor of 5.

For assay [2], the target named is T2, Tau in brain lysate samples from AD patients (human, UniProt P10636-8 2-441, limits assumed).
T2 construct: A mixture of isoforms; The phosphorylation state was not defined by the experiment; also called different length isoforms of Tau in AD samples
T2 sequence (P10636 other isoform, or with tags, fused parts or gaps limits assumed): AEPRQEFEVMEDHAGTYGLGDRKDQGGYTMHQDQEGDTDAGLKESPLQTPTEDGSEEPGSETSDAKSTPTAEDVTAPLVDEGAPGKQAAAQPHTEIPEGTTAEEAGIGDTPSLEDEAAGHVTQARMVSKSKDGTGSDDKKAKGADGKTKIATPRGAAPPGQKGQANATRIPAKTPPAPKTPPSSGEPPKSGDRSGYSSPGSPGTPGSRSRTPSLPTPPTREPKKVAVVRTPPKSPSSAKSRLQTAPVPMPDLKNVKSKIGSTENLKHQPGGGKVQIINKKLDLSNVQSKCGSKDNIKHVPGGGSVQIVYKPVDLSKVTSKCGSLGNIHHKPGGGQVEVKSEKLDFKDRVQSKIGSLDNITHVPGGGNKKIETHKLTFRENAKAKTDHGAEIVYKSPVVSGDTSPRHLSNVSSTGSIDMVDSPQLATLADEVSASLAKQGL
Briefly: Western blot of brain lysates. How it is done: as §1
Background: In western blotting, separated proteins are transferred to a membrane and probed.

Another assay deals with Adx-pt655. The experiment in a line: capture ELISA: 30H10L2 bound to the plate, biotinylated peptide titrated (the concentration is that of Adx-pt655), streptavidin-peroxidase, TMB, OD450-630nm. The source says:
In FIG. 25, a diagram of an assay using Antibody 2 to detect capture of particular Tau peptides is depicted. In this assay, Antibody 2 is bound to a plate and sample wells from the plate are subjected to various biotinylated peptides under conditions conducive to forming specific antibody-ligand interactions. Samples are then washes to remove excess unbound biotinylated peptide. Streptavidin beads conjugated to peroxidase and then added to the samples to allow biotin-streptavidin complexes to form on peptide bound antibodies. TMBred substrate is then added and samples are measured for colorimetric development using an ELISA plate reader. […] Antibody 5 and Antibody 6 tested by indirect ELISA under the same conditions using the same Tau peptides yielded no specific dose-dependent reactivity toward the Tau peptides tested.
Background: ELISA stands for enzyme-linked immunosorbent assay.

The next assay addresses Bio-pt655 (phospho T217). Briefly: indirect ELISA: biotinylated peptide on streptavidin plate, antibody titrated, peroxidase tracer antibody, TMB, OD450-630nm; panel 'Bio-pt655 (phospho T217)'. As to the method: Tau antibodies described herein that detect phosphorylated Tau were tested in ELISA assays. […] Briefly, streptavidin beads were bound to a plate and biotinylated peptide was added to the plates under conditions allowing for biotin-streptavidin binding. […] This was the target peptide. After binding of the synthetic peptide to the plate by the formation of the biotin-streptavidin complex, Tau antibodies were added to the plates under conditions allowing for antibody-target peptide binding. […] After binding, plates were washed to remove any unbound tracer antibody and plates next had TMB ELISA Peroxidase chromogenic substrate (3, 3′, 5, 5′-Tetramethylbenzidine) added to visualize antibody reactivity in indirect ELISA experiments. Antibody sample binding was quantitated using an ELISA microplate reader.
PT3 corresponds to a mouse anti-phospho (T212/T217) Tau selective antibody (Janssen Biotech Inc.). 30H10L2 corresponds to Antibody 2 described herein. 71H1L2 corresponds to Antibody 6 described herein. 62H10L7 corresponds to Antibody 5 described herein.

What is called EC50 (read off the curve) is the concentration needed to bring the measured effect to its halfway point. A higher EC50 (read off the curve) goes with a less potent agent.

T1 sequence (P10636 other isoform, or with tags, fused parts or gaps limits assumed): as above

B1: Antibody 6 (antibody, V domains shown)
VH: QSLEESGGRLVTPGTPLTLTCTVSGIDLSTHAMTWVRQAPGKGLEWIGVINPSGSAYYATWVNGRFTISKTSTTVDLKITSPTTGDTAKYFCARDYITAGDYYMDAFDPWGPGTLVTVSS
VL: DIVMTQTPASVSAAVGGTVTIKCQASQSISNQLSWYQQKSGQPPKLLIYRASTLASGVPSRFKGSGSGTEFTLTISDLECADAATYYCQQGYNRDNVDNLFGGGTEVVVKG
notes: also called 71H1L2
As to B1, the binding result in assay [1] and in assay [2] was “no binding (tested: DF 5)” in each case.

B2: Antibody 2 (antibody, V domains shown)
VH: QSVEESGGRLVTPGTPLTLTCTVSGFSLSSYAMIWVRQAPGKGLEWIGFISRSGITYYASWAKGRFTISKTSTTVDLKMTSLTTEDTATYFCAREFGAVGSDYYRDAFNLWGPGTLVTVSS
VL: DIVMTQTPASVEAAVGGTVTINCQASESINSWLSWYQQKPGQPPNLLIYRASTLASGVPSRFSGGGSGTEYTLTISDLECADAVTYYCQSYYEEDGIGYAFGGGTEVVVEG
notes: also called 30H10L2
For B2, the concentration for a half-maximal effect (EC50 (read off the curve)) with Adx-pt655 was around 0.4 µg/mL; in the assay with Bio-pt655 (phospho T217), around 0.2 µg/mL.

B3: Antibody 5 (antibody, V domains shown)
VH: B2 VH with R9G, T15G, P16T, S30N, I34S, M79I, L82P, T89A, F108L, N109R
VL: DIVMTQTPSSVSAAVGGTVTIKCQASQSIGSNLAWYQQKPGQPPKLLIYGASTLESGVPSRFKGSGSGTEYTLTISDLECADAATYYCQSYYEGSDIGYAFGGGTEVVVEG
notes: also called 62H10L7
On to B3, for which the binding result in assay [1] and in assay [2] was “no binding (tested: DF 5)” each time.
